Data from patent US20250009852A1, “DEPLETING EGFR AND HER2 OVERCOMES RESISTANCE TO EGFR INHIBITORS IN COLORECTAL CANCER” (Health Research, Inc., priority 2021, published 2025).

B1: PEPD^G278D: recombinant and enzymatically inactive mutant of human peptidase D (PEPD), with replacement of glycine 278 by aspartic acid (protein)
chain: AAATGPSFWLGNETLKVPLALFALNRQRLCERLRKNPAVQAGSIVVLQGGEETQRYCTDTGVLFLQESFFHWAFGVTEPGCYGVIDVDTGKSTLFVPRLPASHATWMGKIHSKEHFKEKYAVDDVQYVDEIASVLTSQKPSVLLTLRGVNTDSGSVCREASFDGISKFEVNNTILHPEIVESRVFKTDMELEVLRYTNKISSEAHREVMKAVKVGMKEYGLESLFEHYCYSRGGMRHSSYTCICGSGENSAVLHYGHAGAPNDRTIQNGDMCLFDMDGEYYSVASDITCSFPRNGKFTADQKAVYEAVLLSSRAVMGAMKPGDWWPDIDRLADRIHLEELAHMGILSGSVDAMVQAHLGAVFMPHGLGHFLGIDVHDVGGYPEGVERIDEPGLRSLRTARHLQPGMVLTVEPGIYFIDHLLDEALADPARASFLNREVLQRFRGFGGVRIEEDVVVIDSGIELLTCVPRTVEEIEACMAGCDKAFTPFSGPK
modifications: left off: small tags and cut ends

Key:
[1] = system: HER3, IGF1R, MET, SRC, AKT, ERK, MEK, NRAS, HRAS, caspase 3; test: Western blotting of tumor homogenates: other signaling proteins; format: in vivo, mouse
Protocol: (§1) To prepare whole cell lysates, cells were washed with PBS twice, mixed with 1× cell lysis buffer from Cell Signaling Technology supplemented with 2 mM PMSF and a protease inhibitor cocktail from Roche Applied Science, placed on ice for 10 min, sonicated at 0-4° C. to enhance cell lysis using a Branson Model 450 sonifier, and finally centrifuged at 13,000 g for 10 min at 4° C., and the supernatant fraction is collected as whole cell lysate. Tumor and samples were mixed with RIPA buffer (25 mM Tris-HCl, PH7.6, 150 mM NaCl, 1% Nonidet P-40, 1% sodium deoxycholate, and 0.1% SDS), which was supplemented with 2 mM PMSF, the protease inhibitor cocktail mentioned above, phosphatase inhibitor cocktail 2 and phosphatase inhibitor cocktail 3 from Sigma-Aldrich at 14.3 μl buffer per mg tissue, and homogenized in a Dounce homogenizer. The homogenates were cleared by centrifugation at 13,000 g for 15 min at 4° C.
(§2) Protein concentrations in all samples were measured using the BCA Assay Kit. For Western blotting, each sample was mixed with 4× loading dye, heated for 5 min at 95° C., and resolved by SDS-PAGE (8-12.5%). Proteins were transferred to polyvinylidene fluoride membrane, probed with specific antibodies, and detected using either Luminata Classico (Millipore) or Luminata Cresendo (Millipore). […] The beads were washed three times with IP buffer, suspended in 2× SDS loading buffer, boiled for 5 min, and analyzed by Western blotting.
SCID mice (C.B.17 SCID) were bred by the Laboratory Animal Shared Resource at Roswell Park Comprehensive Cancer Center. […] Subcutaneous tumor volume was measured using length ×width^2÷2. Tumor volume was measured three times each week. Orthotopic tumor growth was monitored by bioluminescence weekly. Mice were given D-luciferin (150 mg/kg) by ip and anesthetized with isoflurane, and tumor burden was measured by bioluminescence using the IVIS Spectrum In Vivo Imaging System (PerkinElmer). Drug treatment was started when significant tumor growth was detected. […] The mice were closely monitored for sign of adverse effects and weighed three times each week.

[2] = system: EGFR; test: Immunofluorescence staining and confocal microscopy of EGFR trafficking in SW48 cells; format: cell-based, human; conditions: serum-free medium, 25 nM, up to 6 h
Protocol: SW48 cells were grown in chamber slides (4×10^4 cells/well) overnight with or without subsequent treatment with PEPD^G278D (25 nM) and/or chloroquine (25 μM) for up to 6 h. The cells were then washed with ice-cold PBS, fixed with 4% paraformaldehyde for 20 min at room temperature (RT), washed again with ice-cold PBS and blocked with 1% BSA in PBS for 1 h at RT. The cells were then incubated with an EGFR antibody, a His tag antibody for detection of PEPD^G278D, and/or a LAMP1 antibody overnight at 4° C., washed with PBS, incubated with a secondary antibody conjugated to Alexa-Fluor 488 or Alexa-Fluor 647 antibody for 1 h at RT and washed again with PBS. The cells were then examined with a BZ-X700 fluorescence microscope (Keyence) with a S PL FL ELWD ADM 40xC objective. Merged images from Z-stack were organized using the ImageJ software (NIH Image).

[3] = system: EGFR and HER2; test: Western blotting of whole cell lysates: EGFR and HER2; format: cell-based, human; conditions: 25 nM
Protocol: as §1
(§3) Protein concentrations in all samples were measured using the BCA Assay Kit. For Western blotting, each sample was mixed with 4× loading dye, heated for 5 min at 95° C., and resolved by SDS-PAGE (8-12.5%). Proteins were transferred to polyvinylidene fluoride membrane, probed with specific antibodies, and detected using either Luminata Classico (Millipore) or Luminata Cresendo (Millipore). For IP, cell lysates (0.5 mg protein/sample) were incubated with a desired antibody overnight at 4° C., followed by incubation of 500 μl sample with 30 μl G-Sepharose beads (2 mg/ml) for 1 h at RT. The beads were washed three times with IP buffer, suspended in 2× SDS loading buffer, boiled for 5 min, and analyzed by Western blotting.

[4] = target: T1, EGFR and HER2 (Homo sapiens, UniProt P00533); test: as above; format: cell-based; conditions: HCT116, HT29 and SW48 cells, medium with 10% serum, 25 nM
T1 construct: Both EGFR and HER2 were expressed in HCT116, HT29, and SW48 cells; endogenous in cells; host or cells: HCT116, HT29, SW48 (SW620 lacks both)
Protocol: as §1, §3

[5] = system: EGFR-HER3, EGFR-IGF1R and EGFR-MET heterodimers; test: Immunoprecipitation and Western blotting of EGFR heterodimers; format: cell-based, human; conditions: 25 nM, 48 h
Protocol: as §3

[6] = system: EGFR and HER2; test: Western blotting of tumor homogenates: EGFR and HER2; format: in vivo, mouse; conditions: 24 h after the final dose
Protocol: To prepare whole cell lysates, cells were washed with PBS twice, mixed with 1× cell lysis buffer from Cell Signaling Technology supplemented with 2 mM PMSF and a protease inhibitor cocktail from Roche Applied Science, placed on ice for 10 min, sonicated at 0-4° C. to enhance cell lysis using a Branson Model 450 sonifier, and finally centrifuged at 13,000 g for 10 min at 4° C., and the supernatant fraction is collected as whole cell lysate. […]
as §2, with “For Western blotting, each sample was mixed with 4× loading dye, heated for 5 min at 95° C., and resolved by SDS-PAGE (8-12.5%).” left out
SCID mice (C.B.17 SCID) were bred by the Laboratory Animal Shared Resource at Roswell Park Comprehensive Cancer Center. […] Subcutaneous tumor volume was measured using length ×width^2÷2. Tumor volume was measured three times each week. Orthotopic tumor growth was monitored by bioluminescence weekly. Mice were given D-luciferin (150 mg/kg) by ip and anesthetized with isoflurane, and tumor burden was measured by bioluminescence using the IVIS Spectrum In Vivo Imaging System (PerkinElmer). Drug treatment was started when significant tumor growth was detected. […]

Molecule | expression or phosphorylation of the proteins analyzed in tumors ([1]; HCT116 and HT29 tumors, single agent) | ERK phosphorylation in tumors ([1]; SW48 tumors, 24 h after the final dose) | EGFR internalization and lysosomal degradation [2] | HER2 level ([3]; HCT116, HT29 and SW48 cells, medium with 10% serum, 3 h) | expression and tyrosine phosphorylation of EGFR and HER2 ([3]; SW48, HCT116 and HT29 cells, 48 h) | EGFR and HER2 level ([3]; serum-free medium, 3 h) | EGFR level ([4]; 6 h) | EGFR level ([4]; 24 h) | EGFR association with HER3, MET or IGF1R [5] | effect on EGFR, HER2 and ERK in tumors ([6]; HCT116 and HT29 tumors) | expression and phosphorylation of EGFR and HER2 in tumors ([6]; SW48 tumors)
COC(=O)N1CC2(CC2)C[C@H](C(=O)NO)[C@H]1C(=O)N1CC=C(c2ccccc2)CC1 [aderbasib] | neither EP nor aderbasib had any effect |  |  |  |  |  |  |  |  |  | 
B1 |  | decreased ERK phosphorylation | induces EGFR internalization and lysosomal degradation | decreased markedly | obliterated | marked decrease | no decrease | profound decrease | disruption of EGFR association | neither PEPD^G278D nor cetuximab had any effect | decreased the expression and phosphorylation of both EGFR and HER2
